B1: FL^SspB: S. gordonii SspB full length construct (151.9 kDa) (protein)
chain: DEVTETTSTSTVEVATTGNPATNLPEAQGEMSQVAKESQAKAGSKESALPVEVSSADLDKAVADAKSAGVKVVQDETKDKGTATTATDNAQKQDEIKSDYAKQAEEIKTTTEAYKKEVAAHQAETDKINAENKAADDKYQKDLKSHQEEVEKINTANATAKAEYEAKLAQYQKDLATVKKANEDSQQDYQNKLSAYQTELARVQKANAEAKEAYEKAVKENTAKNEALKVENEAIKQRNETAKATYEAAMKQYEADLAAIKKANEDNDADYQAKLAAYQTELARVQKANAEAKEAYDKAVKENTAKNTAIQAENEAIKQRNETAKATYDAAVKKYEADLAAVKQANATNEADYQAKLAAYQTELARVQKANADAKATYEKAVEDNKAKNAAIKAENEEIKQRNAVAKTDYEAKLAKYEADLAKYKKEFAAYTAALAEAESKKKQDGYLSEPRSQSLNFKSEPNAIRTIDSSVHQYGQQELDALVKSWGISPTNPDRKKSRAYSYFNAINSNNTYAKLVLEKDKPVDVTYTGLKNSSFNGKKISKVVYTYTLKETGFNDGTKMTMFASSDPTVTAWYNDYFTSTNINVKVKFYDEEGQLMNLTGGLVNFSSLNRGNGSGAIDKDAIESVRNFNGRYIPISGSSIKIHENNSAYADSSNAEKSLGARWNTSEWDTTSSPNNWYGAIVGEITQSEISFNMASSKSGNIWFAFNSNINAIGVPTKPVAPTAPTQPMYETEKPLEPAPVAPSYENEPTPPVKTPDQPEPSKPEEPTYETEKPLEPAPVAPSYENEPTPPVKTPDQPEPSKPEEPNYETEKPLEPAPVAPSYENEPTPPVKIPDQPEPSKPEEPTYDPLPTPPLAPTPKQLPTPPVVPTVHFHYSSLLAQPQINKEIKNEDGVDIDRTLVAKQSIVKFELKTEALTAGRPKTTSFVLVDPLPTGYKFDLDATKAASTGFDTTYDEASHTVTFKATDETLATYNADLTKPVETLHPTVVGRVLNDGATYTNNFTLTVNDAYGIKSNVVRVTTPGKPNDPDNPNNNYIKPTKVNKNKEGLNIDGKEVLAGSTNYYELTWDLDQYKGDKSSKEAIQNGFYYVDDYPEEALDVRPDLVKVADEKGNQVSGVSVQQYDSLEAAPKKVQDLLKKANITVKGAFQLFSADNPEEFYKQYVATGTSLVITDPMTVKSEFGKTGGKYENKAYQIDFGNGYATEVVVNNVPKITPKKDVTVSLDPTSENLDGQTVQLYQTFNYRLIGGLIPQNHSEELEDYSFVDDYDQAGDQYTGNYKTFSSLNLTMKDGSVIKAGTDLTSQTTAETDATNGIVTVRFKEDFLQKISLDSPFQAETYLQMRRIAIGTFENTYVNTVNKVAYASNTVRTTTPIPRTPDKPTPIPTPKPKDP
B2: C123^AgI/II: S. mutans AgI/II C-terminal C123 fragment (57.3 kDa) (protein)
chain: VNKEIRNNNDINIDRTLVAKQSVVKFQLKTADLPAGRDETTSFVLVDPLPSGYQFNPEATKAASPGFDVTYDNATNTVTFKATAATLATFNADLTKSVATIYPTVVGQVLNDGATYKNNFTLTVNDAYGIKSNVVRVTTPGKPNDPDNPNNNYIKPTKVNKNENGVVIDGKTVLAGSTNYYELTWDLDQYKNDRSSADTIQKGFYYVDDYPEEALELRQDLVKITDANGNEVTGVSVDNYTNLEAAPQEIRDVLSKAGIRPKGAFQIFRADNPREFYDTYVKTGIDLKIVSPMVVKKQMGQTGGSYENQAYQIDFGNGYASNIIINNVPKINPKKDVTLTLDPADTNNVDGQTIPLNTVFNYRLIGGIIPADHSEELFEYNFYDDYDQTGDHYTGQYKVFAKVDITFKDGSIIKSGAELTQYTTAEVDTAKGAITIKFKEAFLRSVSIDSAFQAESYIQMKRIAVGTFENTYINTVNGVTYSSNTVK
B3: A3VP1^AgI/II: S. mutans AgI/II apical A3VP1 fragment (54.4 kDa) (protein)
chain: AANEADYQAKLTAYQTELARVQKANADAKAAYEAAVAANNAANAALTAENTAIKKRNADAKADYEAKLAKYQADLAKYQKDLADYPVKLKAYEDEQASIKAALAELEKHKNEDGNLTEPSAQNLVYDLEPNANLSLTTDGKFLKASAVDDAFSKSTSKAKYDQKILQLDDLDITNLEQSNDVASSMELYGNFGDKAGWSTTVSNNSQVKWGSVLLERGQSATATYTNLQNSYYNGKKISKIVYKYTVDPKSKFQGQKVWLGIFTDPTLGVFASAYTGQVEKNTSIFIKNEFTFYDEDGKPINFDNALLSVASLNRENNSIEMAKDYTGKFVKISGSSIGEKNGMIYATDTLNFRQGQGGARWTMYTRASEPGSGWDSSDAPNSWYGAGAIRMSGPNNSVTLGAISSTLVVPADPTMAIETGKKPNIWYSLNGKIRAVNVPKVTKEKPTPPVKPTAPTKPTYETEKPLKPAPVAPNYEKEPTPPTRTPDQ

Tests used:
iSRCR1 [1] = biological target: T1, iSRCR1 (Homo sapiens, UniProt Q9UGM3); test: SPR binding of analytes to immobilized iSRCR1 (CM5 chip, 1:1 Langmuir); conditions: ligand iSRCR1
T1 construct: strongly proves that a single SRCR domain contains the adherence sites for AgI/II and SspB; made in house; host or cells: Drosophila expression system
Protocol: (§1) Real time binding analyses of the SRCR domains with AgI/II fragments were carried out using the BIAcore 2000 system. […] Self association of iSRCR1 or iSRCR123 (at 2 μM) were also determined in a similar manner as described above. Finally to determine the effect of calcium SPR analysis was carried out by dialyzing the analytes and ligands in binding buffer devoid of CaCl2.
(§2) In addition, the SRCR holding two distinct surfaces compounded the elucidation of individual kinetics, and presently there are no modeling protocols available to determine the individual affinities for such a system, therefore for simplicity we have utilized a single site 1:1 Langmuir model. All experiments were carried out in triplicates and the kinetics of the association (KA) and dissociation (KD) rate constants were deduced using the 1:1 Langmuir Kinetic model on the BIA-Evaluation software. The concentration (C in μM) of analyte (FL^AgI/II or FL^SspB at 2 μM) that adhered to the immobilized ligand (iSRCR1, iSRCR123) within the flow cell was calculated using the formula C=(RU/MW)×(1/V), where RU is resonance unit (1 RU=1 pg of bound protein), MW is molecular weight of analyte and V is volume of flow cell (1.2×10^−10 L).

iSRCR1 [2] = biological target: T1, iSRCR1; test: Competition adherence SPR on immobilized iSRCR1; assay type: binding; conditions: FL injected first
Protocol: (§3) To determine whether AgI/II domains bound to the same site on SRCR domains, competitive binding SPR experiments were conducted in triplicates as previously described where each fragment of AgI/II (FL, A3VP1, or C123) or SspB (FL, A3VP1 or C123) was initially passed over the chip surface immobilized with either iSRCR1, iSRCR123 or SAG for 60 seconds to saturate available binding sites. The response curve of AgI/II or SspB first fragment was recorded, where the maximal RU (RU1) was considered as the base line for the second injection, and thereafter the competing fragment was injected and its response was recorded as RU2. The adherence of the second fragment was then calculated (RU2−RU1) for all SPR competing assay as reported earlier.

iSRCR1 (Deglycosylated) = biological target: T2, iSRCR1 (Deglycosylated) (Homo sapiens, UniProt Q9UGM3); test: SPR binding of analytes to on-chip deglycosylated iSRCR1; conditions: ligand iSRCR1 (Deglycosylated)
T2 construct: strongly proves that a single SRCR domain contains the adherence sites for AgI/II and SspB; made in house; host or cells: Drosophila expression system
Protocol: as §1
(§4) On-chip Deglycosylation of the iSRCR1 and iSRCR123 was carried out after immobilizing them on CM5 sensor chip. Enzymatic deglycosylation was done to remove N- and O-linked carbohydrates from iSRCR1 and iSRCR123. Briefly, after immobilization of iSRCR1 and iSRCR123, deglycosylation was carried out at native conditions by incubating the entire chip surface externally with a cocktail containing a total reaction volume of 40 μl made up of 4 μl of 10×G7reaction buffer, 4 μl of 10% NP40, 4 μl of Neuraminidase (Sigma), 18 μl water and 10 μl of O-glycosidase (New England Biolabs, Inc.,) and similarly following manufacturers protocols for EndoH (New England Biolabs, Inc). Later, the chip was sealed and incubated overnight at 37° C. Subsequently the chip was thoroughly washed with binding buffer (20 mM HEPES, 150 mM NaCl, 2.5 mM CaCl2) to remove the deglycosylating enzymes and other remnants. Binding studies with FL^AgI/II and FL^SspB and subfragments were then carried out as described above and regenerated as described in Table 2.
as §2

iSRCR123 [3] = biological target: T3, iSRCR123 (Homo sapiens, UniProt Q9UGM3); test: Competition adherence SPR on immobilized iSRCR123; assay type: binding; conditions: FL injected first
T3 construct: multiple SRCR domains have better adherence capability compared to that of a single SRCR domain; made in house; host or cells: Drosophila expression system
Protocol: as §3

SAG = biological target: T4, SAG (Homo sapiens, UniProt Q9UGM3); test: SPR binding of analytes to immobilized SAG; conditions: ligand SAG
T4 construct: from tissue; host or cells: saliva (purified SAG, gift)
Protocol: as §1, §2

[4] = biological target: T5, iSRCR123 (Deglycosylated) (Homo sapiens, UniProt Q9UGM3); test: SPR binding of analytes to on-chip deglycosylated iSRCR123; conditions: ligand iSRCR123 (Deglycosylated)
T5 construct: multiple SRCR domains have better adherence capability compared to that of a single SRCR domain; made in house; host or cells: Drosophila expression system
Protocol: as §1, §4, §2

iSRCR123 [5] = biological target: T3, iSRCR123; test: SPR binding of analytes to immobilized iSRCR123 (CM5 chip, 1:1 Langmuir); conditions: for KA / Kd / ka / kd: ligand iSRCR123
Protocol: as §1, §2

T4 sequence (Q9UGM3 20-2413): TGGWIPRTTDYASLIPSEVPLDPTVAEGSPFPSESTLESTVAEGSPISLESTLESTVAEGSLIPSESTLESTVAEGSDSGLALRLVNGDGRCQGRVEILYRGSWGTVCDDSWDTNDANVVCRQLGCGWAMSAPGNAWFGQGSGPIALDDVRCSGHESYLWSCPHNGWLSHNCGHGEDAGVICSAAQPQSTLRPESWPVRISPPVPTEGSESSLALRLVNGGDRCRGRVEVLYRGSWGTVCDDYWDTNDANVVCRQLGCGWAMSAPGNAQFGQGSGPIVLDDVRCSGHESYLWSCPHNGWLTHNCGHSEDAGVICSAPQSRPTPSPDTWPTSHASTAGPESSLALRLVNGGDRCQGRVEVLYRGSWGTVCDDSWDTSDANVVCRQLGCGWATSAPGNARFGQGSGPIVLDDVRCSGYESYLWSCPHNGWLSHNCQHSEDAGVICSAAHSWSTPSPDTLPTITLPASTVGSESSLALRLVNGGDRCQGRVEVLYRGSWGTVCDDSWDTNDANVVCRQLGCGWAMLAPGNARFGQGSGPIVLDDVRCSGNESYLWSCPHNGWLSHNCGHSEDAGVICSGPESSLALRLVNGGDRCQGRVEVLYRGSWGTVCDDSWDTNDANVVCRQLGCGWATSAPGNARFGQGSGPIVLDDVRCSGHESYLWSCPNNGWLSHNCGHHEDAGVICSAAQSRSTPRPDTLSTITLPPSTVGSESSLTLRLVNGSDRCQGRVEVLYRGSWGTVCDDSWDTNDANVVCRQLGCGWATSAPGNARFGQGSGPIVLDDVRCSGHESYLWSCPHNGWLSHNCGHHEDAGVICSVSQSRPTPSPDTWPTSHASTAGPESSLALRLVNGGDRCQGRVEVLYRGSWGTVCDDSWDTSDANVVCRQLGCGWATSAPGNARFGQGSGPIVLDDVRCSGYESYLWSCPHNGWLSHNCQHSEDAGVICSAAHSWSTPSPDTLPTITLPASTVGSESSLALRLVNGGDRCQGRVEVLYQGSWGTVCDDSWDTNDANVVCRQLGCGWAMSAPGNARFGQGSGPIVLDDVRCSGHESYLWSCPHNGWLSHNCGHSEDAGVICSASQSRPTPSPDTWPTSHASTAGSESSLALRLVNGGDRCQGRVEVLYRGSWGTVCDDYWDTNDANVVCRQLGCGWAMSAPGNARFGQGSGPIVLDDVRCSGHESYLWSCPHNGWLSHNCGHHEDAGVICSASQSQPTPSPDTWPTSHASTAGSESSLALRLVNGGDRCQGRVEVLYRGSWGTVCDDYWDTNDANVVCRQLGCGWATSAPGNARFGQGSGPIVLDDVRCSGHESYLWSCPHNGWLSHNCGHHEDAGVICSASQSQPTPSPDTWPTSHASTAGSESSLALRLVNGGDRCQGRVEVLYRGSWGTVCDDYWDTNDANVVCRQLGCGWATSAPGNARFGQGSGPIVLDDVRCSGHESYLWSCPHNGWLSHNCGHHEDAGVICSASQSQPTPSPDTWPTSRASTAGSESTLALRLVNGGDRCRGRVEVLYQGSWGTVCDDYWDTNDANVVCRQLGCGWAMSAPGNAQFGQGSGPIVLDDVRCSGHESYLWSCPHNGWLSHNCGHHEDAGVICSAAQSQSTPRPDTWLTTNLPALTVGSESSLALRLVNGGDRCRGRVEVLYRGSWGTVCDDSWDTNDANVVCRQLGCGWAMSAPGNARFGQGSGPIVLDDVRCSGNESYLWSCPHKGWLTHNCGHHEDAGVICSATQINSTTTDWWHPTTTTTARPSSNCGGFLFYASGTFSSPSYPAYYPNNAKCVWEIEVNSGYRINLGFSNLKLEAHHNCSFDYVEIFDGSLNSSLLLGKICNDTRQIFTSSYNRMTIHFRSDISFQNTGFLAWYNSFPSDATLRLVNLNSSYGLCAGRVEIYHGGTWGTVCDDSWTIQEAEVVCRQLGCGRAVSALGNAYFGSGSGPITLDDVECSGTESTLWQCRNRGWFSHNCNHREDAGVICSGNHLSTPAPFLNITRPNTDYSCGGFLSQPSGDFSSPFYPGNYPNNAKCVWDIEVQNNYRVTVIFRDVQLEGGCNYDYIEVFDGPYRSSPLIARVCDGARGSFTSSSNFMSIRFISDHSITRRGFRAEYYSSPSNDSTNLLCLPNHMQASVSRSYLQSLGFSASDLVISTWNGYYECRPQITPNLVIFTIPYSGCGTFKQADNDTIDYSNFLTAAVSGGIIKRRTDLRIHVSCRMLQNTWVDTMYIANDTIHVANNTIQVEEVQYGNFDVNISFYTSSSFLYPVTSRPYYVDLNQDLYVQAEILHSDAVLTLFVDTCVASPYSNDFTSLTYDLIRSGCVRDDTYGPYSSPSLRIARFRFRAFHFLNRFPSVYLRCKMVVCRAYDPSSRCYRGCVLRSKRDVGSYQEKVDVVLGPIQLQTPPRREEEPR
T2 sequence (Q9UGM3 102-202): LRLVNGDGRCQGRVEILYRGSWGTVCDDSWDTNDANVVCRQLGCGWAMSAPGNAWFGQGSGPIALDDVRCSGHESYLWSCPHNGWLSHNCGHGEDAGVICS
T1 sequence (Q9UGM3 102-202 limits assumed): as the sequence (Q9UGM3 102-202) above
T3 sequence (Q9UGM3 102-463 limits assumed): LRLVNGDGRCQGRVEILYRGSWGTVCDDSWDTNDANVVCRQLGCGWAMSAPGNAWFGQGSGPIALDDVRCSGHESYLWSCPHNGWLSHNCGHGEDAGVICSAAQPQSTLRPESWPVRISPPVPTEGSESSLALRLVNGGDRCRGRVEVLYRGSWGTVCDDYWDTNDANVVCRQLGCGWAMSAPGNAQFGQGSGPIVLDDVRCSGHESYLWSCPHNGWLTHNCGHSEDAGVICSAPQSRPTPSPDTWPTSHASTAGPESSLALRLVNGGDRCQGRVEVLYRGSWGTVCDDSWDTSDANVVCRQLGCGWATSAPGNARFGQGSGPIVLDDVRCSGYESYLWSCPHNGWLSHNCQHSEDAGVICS
T5 sequence (Q9UGM3 102-463 limits assumed): as above

| Molecule | KA (iSRCR1 [1]) [M⁻¹] | Kd (iSRCR1 [1]) [nM] | ka (iSRCR1 [1]) [M⁻¹ s⁻¹] | kd (iSRCR1 [1]) [s⁻¹] | KA (iSRCR1 (Deglycosylated)) [M⁻¹] | Kd (iSRCR1 (Deglycosylated)) [nM] | ka (iSRCR1 (Deglycosylated)) [M⁻¹ s⁻¹] | kd (iSRCR1 (Deglycosylated)) [s⁻¹] | KA [4] [M⁻¹] | Kd [4] [nM] | ka [4] [M⁻¹ s⁻¹] | kd [4] [s⁻¹] | KA (iSRCR123 [5]) [M⁻¹] | Kd (iSRCR123 [5]) [nM] | ka (iSRCR123 [5]) [M⁻¹ s⁻¹] | kd (iSRCR123 [5]) [s⁻¹] | also measured |
| --- | --- | --- | --- | --- | --- | --- | --- | --- | --- | --- | --- | --- | --- | --- | --- | --- | --- |
| B1 | 3.91e+06 | 256 | 9250 | 0.00237 | 7.97e+06 | 125 | 8300 | 0.00104 | 5.24e+06 | 191 | 6920 | 0.00132 | 2.38e+07 | 42.1 | 18200 | 0.000759 | inhibition of binding of the A3VP1 fragment of the same protein (iSRCR1 [2]): 54%; inhibition of binding of the C123 fragment of the same protein (iSRCR1 [2]): 23%; inhibition of binding of the A3VP1 fragment of the same protein (iSRCR123 [3]): 68%; inhibition of binding of the C123 fragment of the same protein (iSRCR123 [3]): 76%; KA (SAG): 1.63e+08 M⁻¹; ka (SAG): 320000 M⁻¹ s⁻¹; kd (SAG): 0.00197 s⁻¹; quantity of protein that adhered to iSRCR123, higher than iSRCR1 (iSRCR123 [5]; analyte at 2 μM, iSRCR123 versus iSRCR1): 43% |
| B2 | 6.46e+06 | 151 | 15400 | 0.00232 | 48100 | 20800 | 1180 | 0.0246 | 458000 | 2180 | 3010 | 0.00658 | 1.15e+07 | 87 | 8290 | 0.000721 |  |
| B3 | 8.57e+06 | 117 | 28000 | 0.00327 | 1.92e+06 | 520 | 5270 | 0.00274 | 1.22e+06 | 818 | 4070 | 0.00333 | 7.98e+06 | 125 | 19900 | 0.00249 |  |
